Results: patent publication US20070185311A1 (EPIX MEDICAL INC A DELAWARE, published 2007)
Starred links: 1 amine or outer side, 2 acyl side, 3 side chain; linkers in the order of their positions; H or OH if unused. Positions of bridges follow the written chain, without caps; N, C: chain ends. Non-standard residues stand in square brackets, D forms with d. Primed or numbered codes have the meaning given here. No end group written: not given here. Tyr(3-NO2) = N[C@@H](Cc1ccc(O)c([N+](=O)[O-])c1)C(=O)O; Phe(4-OMe) = COc1ccc(C[C@H](N[*:1])C(=O)[*:2])cc1; Phe(3-CF3) = N[C@@H](Cc1cccc(C(F)(F)F)c1)C(=O)O; Phe(4-CF3) = N[C@@H](Cc1ccc(C(F)(F)F)cc1)C(=O)O; Bpa = N[C@@H](Cc1ccc(C(=O)c2ccccc2)cc1)C(=O)O; Phe(4-CH2NH2) = NCc1ccc(C[C@H](N)C(=O)O)cc1; Tyr(3-Cl) = N[C@@H](Cc1ccc(O)c(Cl)c1)C(=O)O; Bip = N[C@@H](Cc1ccc(-c2ccccc2)cc1)C(=O)O; Tyr(3-I) = N[C@@H](Cc1ccc(O)c(I)c1)C(=O)O; Phe(3-OMe) = COc1cccc(C[C@H](N)C(=O)O)c1; Phe(4-Br) = N[C@@H](Cc1ccc(Br)cc1)C(=O)O; Phe(4-CN) = N#Cc1ccc(C[C@H](N)C(=O)O)cc1; Phe(4-NH2) = Nc1ccc(C[C@H](N)C(=O)O)cc1; Phe(2-OMe) = COc1ccccc1C[C@H](N)C(=O)O; Phe(3-Me) = Cc1cccc(C[C@H](N)C(=O)O)c1; Phe(4-F) = N[C@@H](Cc1ccc(F)cc1)C(=O)O; Phe(4-I) = N[C@@H](Cc1ccc(I)cc1)C(=O)O; Phe(4-Me) = Cc1ccc(C[C@H](N)C(=O)O)cc1; 1Nal = N[C@@H](Cc1cccc2ccccc12)C(=O)O; Hyp = O=C(O)[C@@H]1C[C@@H](O)CN1; hPhe = N[C@@H](CCc1ccccc1)C(=O)O; 3Pal = N[C@@H](Cc1cccnc1)C(=O)O; 4Pal = N[C@@H](Cc1ccncc1)C(=O)O; Phe(4-Et)′ = not defined here; Tle = CC(C)(C)[C@H](N)C(=O)O; Tyr(2-F)′ = not defined here; Nle = CCCC[C@H](N)C(=O)O; MTyr = not defined here; nTyr = not defined here; Cmp = not defined here

B1: L-P-C-D-Y-Y-G-T-C-MeL-Cmp (peptide)
peptide: LPCDYYGTC[MeL][Cmp]
modifications: cysteine pairing not given here; reading uncertain; also: printed as L-P-C-D-Y-Y-G-T-C-MeL-Cmp

Biological target: DD(E) fragment of fibrin
Test: affinity to DD(E) fragment of fibrin

Row | Kd [nM] | Binder
1 | < 100 | [DopaMe2]HC[Hyp][Tyr(3-I)]DLCHI (disulfide 3-8 (inferred)) [DopaMe2-H-C-Hyp-Y(3-I)-D-L-C-H-I]
2 | < 100 | FHC[Hyp][Tyr(3-I)]DLCH[Bpa] (disulfide 3-8 (inferred)) [F-H-C-Hyp-Y(3-I)-D-L-C-H-Bpa]
3 | < 100 | [Phe(3-OMe)]HC[Hyp][Tyr(3-I)]DLCHI (disulfide 3-8 (inferred)) [F(3-OMe)-H-C-Hyp-Y(3-I)-D-L-C-H-I]
4 | < 100 | [Phe(4-OMe)]HC[Hyp][Tyr(3-I)]DLCH[Bpa]L (disulfide 3-8 (inferred)) [F(4-OMe)-H-C-Hyp-Y(3-I)-D-L-C-H-Bpa-L]
5 | < 100 | FHC[Hyp][Tyr(3-I)]DLCH[Phe(4-CF3)] (disulfide 3-8 (inferred)) [F-H-C-Hyp-Y(3-I)-D-L-C-H-F(4-CF3)]
6 | < 100 | [nTyr]HC[Hyp][Tyr(3-I)]DLCHI (disulfide 3-8 (inferred); reading uncertain) [nTyr-H-C-Hyp-Y(3-I)-D-L-C-H-I]
7 | < 100 | [Phe(4-OMe)]HC[Hyp][Tyr(3-Cl)]DLCHIL (disulfide 3-8 (inferred)) [F(4-OMe)-H-C-Hyp-Y(3-Cl)-D-L-C-H-I-L]
8 | < 100 | FHC[Hyp][Tyr(3-I)]DLCH[Bip] (disulfide 3-8 (inferred)) [F-H-C-Hyp-Y(3-I)-D-L-C-H-Bip]
9 | < 100 | [Tyr(2-F)′]HC[Hyp][Tyr(3-I)]DLCHI (disulfide 3-8 (inferred)) [Y(2-F)-H-C-Hyp-Y(3-I)-D-L-C-H-I]
10 | < 100 | [Phe(4-OMe)]HC[Hyp][Tyr(3-I)]DLCHI (disulfide 3-8 (inferred)) [F(4-OMe)-H-C-Hyp-Y(3-I)-D-L-C-H-I]
11 | < 100 | F[His(Bzl)]C[Hyp][Tyr(3-Cl)]DLCHIL (disulfide 3-8 (inferred)) [F-H(Bzl)-C-Hyp-Y(3-Cl)-D-L-C-H-I-L]
12 | < 100 | [Phe(4-CF3)]HC[Hyp][Tyr(3-I)]DLCHI (disulfide 3-8 (inferred)) [F(4-CF3)-H-C-Hyp-Y(3-I)-D-L-C-H-I]
13 | < 100 | [1Nal]HC[Hyp][Tyr(3-I)]DLCHI (disulfide 3-8 (inferred)) [1Nal-H-C-Hyp-Y(3-I)-D-L-C-H-I]
14 | < 10000 | LPCDYYGTCXD (Bip at 10) [L-P-C-D-Y-Y-G-T-C-Bip-D]
15 | < 100 | FHC[Hyp][Tyr(3-I)]DLCH[Phe(4-OMe)] (disulfide 3-8 (inferred)) [F-H-C-Hyp-Y(3-I)-D-L-C-H-F(4-OMe)]
16 | < 100 | [3Pal]HC[Hyp][Tyr(3-I)]DLCHI (disulfide 3-8 (inferred)) [3Pal-H-C-Hyp-Y(3-I)-D-L-C-H-I]
17 | < 100 | [Phe(4-OMe)][His(Bzl)]C[Hyp][Tyr(3-I)]DLCH[Bpa] (disulfide 3-8 (inferred)) [F(4-OMe)-H(Bzl)-C-Hyp-Y(3-I)-D-L-C-H-Bpa]
18 | < 100 | FHC[Hyp][Tyr(3-I)]DLCHIL (disulfide 3-8 (inferred)) [F-H-C-Hyp-Y(3-I)-D-L-C-H-I-L]
19 | < 100 | [Phe(4-OMe)][His(Bzl)]C[Hyp][Tyr(3-I)]DLCHI (disulfide 3-8 (inferred)) [F(4-OMe)-H(Bzl)-C-Hyp-Y(3-I)-D-L-C-H-I]
20 | < 100 | [hPhe]HC[Hyp][Tyr(3-I)]DLCHI (disulfide 3-8 (inferred)) [Hfe-H-C-Hyp-Y(3-I)-D-L-C-H-I]
21 | < 100 | [Phe(4-I)]HC[Hyp][Tyr(3-I)]DLCHI (disulfide 3-8 (inferred)) [F(4-I)-H-C-Hyp-Y(3-I)-D-L-C-H-I]
22 | < 100 | [Phe(2-OMe)]HC[Hyp][Tyr(3-I)]DLCHI (disulfide 3-8 (inferred)) [F(2-OMe)-H-C-Hyp-Y(3-I)-D-L-C-H-I]
23 | < 100 | [Tyr(3-I)]HC[Hyp][Tyr(3-I)]DLCHI (disulfide 3-8 (inferred)) [Y(3-I)-H-C-Hyp-Y(3-I)-D-L-C-H-I]
24 | < 100 | FHC[Hyp][Tyr(3-I)]DLCH[Nle] (disulfide 3-8 (inferred); not fully specified) [F-H-C-Hyp-Y(3-I)-D-L-C-H-Nle]
25 | < 100 | [Phe(4-Br)]HC[Hyp][Tyr(3-I)]DLCHI (disulfide 3-8 (inferred)) [F(4-Br)-H-C-Hyp-Y(3-I)-D-L-C-H-I]
26 | < 100 | [Tyr(3-NO2)]HC[Hyp][Tyr(3-I)]DLCHI (disulfide 3-8 (inferred)) [Y(3-NO2)-H-C-Hyp-Y(3-I)-D-L-C-H-I]

Row | Kd [nM] | Binder
27 | < 100 | FHC[Hyp][Tyr(3-I)]DLCH[Phe(4-Et)′] (disulfide 3-8 (inferred)) [F-H-C-Hyp-Y(3-I)-D-L-C-H-F(4-Et)]
28 | < 100 | FHC[Hyp][Tyr(3-Cl)]DLCHIL (disulfide 3-8 (inferred)) [F-H-C-Hyp-Y(3-Cl)-D-L-C-H-I-L]
29 | < 100 | [Phe(4-F)]HC[Hyp][Tyr(3-I)]DLCHI (disulfide 3-8 (inferred)) [F(4-F)-H-C-Hyp-Y(3-I)-D-L-C-H-I]
30 | < 100 | [4Pal]HC[Hyp][Tyr(3-I)]DLCHI (disulfide 3-8 (inferred)) [4Pal-H-C-Hyp-Y(3-I)-D-L-C-H-I]
31 | < 100 | FHC[Hyp][Tyr(3-I)]DLC[3Pal]I (disulfide 3-8 (inferred)) [F-H-C-Hyp-Y(3-I)-D-L-C-3Pal-I]
32 | < 100 | FHC[Hyp][Tyr(3-I)]DLCHI (disulfide 3-8 (inferred)) [F-H-C-Hyp-Y(3-I)-D-L-C-H-I]
33 | < 100 | WEC[Hyp][Tyr(3-Cl)]GLCWIQ (disulfide 3-8 (inferred)) [W-E-C-Hyp-Y(3-Cl)-G-L-C-W-I-Q]
34 | < 100 | [Phe(3-Me)]HC[Hyp][Tyr(3-I)]DLCHI (disulfide 3-8 (inferred)) [F(3-Me)-H-C-Hyp-Y(3-I)-D-L-C-H-I]
35 | < 100 | [Phe(34-F2)]HC[Hyp][Tyr(3-I)]DLCHI (disulfide 3-8 (inferred)) [F(34-F2)-H-C-Hyp-Y(3-I)-D-L-C-H-I]
36 | < 100 | [Phe(4-CH2NH2)]HC[Hyp][Tyr(3-I)]DLCHI (disulfide 3-8 (inferred)) [F(4-CH2NH2)-H-C-Hyp-Y(3-I)-D-L-C-H-I]
37 | < 10000 | LPCDYYGTCXD (Bip at 10; dD at 11) [L-P-C-D-Y-Y-G-T-C-Bip-dD]
38 | < 100 | [Phe(4-CN)]HC[Hyp][Tyr(3-I)]DLCHI (disulfide 3-8 (inferred)) [F(4-CN)-H-C-Hyp-Y(3-I)-D-L-C-H-I]
39 | < 100 | FHC[Hyp][Tyr(3-I)]DLCH[Phe(3-CF3)] (disulfide 3-8 (inferred)) [F-H-C-Hyp-Y(3-I)-D-L-C-H-F(3-CF3)]
40 | < 100 | [Phe(3-CF3)]HC[Hyp][Tyr(3-I)]DLCHI (disulfide 3-8 (inferred)) [F(3-CF3)-H-C-Hyp-Y(3-I)-D-L-C-H-I]
41 | < 100 | [Phe(4-Me)]HC[Hyp][Tyr(3-I)]DLCHI (disulfide 3-8 (inferred)) [F(4-Me)-H-C-Hyp-Y(3-I)-D-L-C-H-I]
42 | < 100 | [Phe(4-OMe)]HC[Hyp][Tyr(3-Cl)]DLCH[Bpa]L (disulfide 3-8 (inferred)) [F(4-OMe)-H-C-Hyp-Y(3-Cl)-D-L-C-H-Bpa-L]
43 | < 100 | [Phe(4-OMe)]HC[Hyp][Tyr(3-I)]DLCH[Bpa] (disulfide 3-8 (inferred)) [F(4-OMe)-H-C-Hyp-Y(3-I)-D-L-C-H-Bpa]
44 | < 100 | [Phe(4-OMe)]HC[Hyp][Tyr(3-Cl)]DLCHI (disulfide 3-8 (inferred)) [F(4-OMe)-H-C-Hyp-Y(3-Cl)-D-L-C-H-I]
45 | < 100 | [Phe(4-NH2)]HC[Hyp][Tyr(3-I)]DLCHI (disulfide 3-8 (inferred)) [F(4-NH2)-H-C-Hyp-Y(3-I)-D-L-C-H-I]
46 | < 100 | FHC[Hyp][Tyr(3-I)]DLCH[Tle] (disulfide 3-8 (inferred)) [F-H-C-Hyp-Y(3-I)-D-L-C-H-Tle]
47 | < 100 | FHC[Hyp][Tyr(3-I)]DLCH[hPhe] (disulfide 3-8 (inferred)) [F-H-C-Hyp-Y(3-I)-D-L-C-H-Hfe]
48 | < 100 | [MTyr]HC[Hyp][Tyr(3-I)]DLCHI (disulfide 3-8 (inferred); reading uncertain) [MTyr-H-C-Hyp-Y(3-I)-D-L-C-H-I]
49 | < 100 | [Phe(4-OMe)][His(Bzl)]C[Hyp][Tyr(3-Cl)]DLCHI (disulfide 3-8 (inferred)) [F(4-OMe)-H(Bzl)-C-Hyp-Y(3-Cl)-D-L-C-H-I]
50 | < 10000 | B1
51 | < 100 | FHC[Hyp][Tyr(3-Cl)]DLCHI (disulfide 3-8 (inferred)) [F-H-C-Hyp-Y(3-Cl)-D-L-C-H-I]
52 | < 10000 | LPCDYYGTCXD (Me-Bip at 10) [L-P-C-D-Y-Y-G-T-C-Me-Bip-D]
